Source: patent US20220363757A1 (SYMPHOGEN A S, published 2022)
Substitutions are numbered along the chain they refer to.

T1: human LAG-3 domain 1-2 Fc fusion, point mutation #47 T100A (human, UniProt P18627 23-266)
T1 construct: not shown: human IgG1 Fc, AA P101-K330
T1 sequence: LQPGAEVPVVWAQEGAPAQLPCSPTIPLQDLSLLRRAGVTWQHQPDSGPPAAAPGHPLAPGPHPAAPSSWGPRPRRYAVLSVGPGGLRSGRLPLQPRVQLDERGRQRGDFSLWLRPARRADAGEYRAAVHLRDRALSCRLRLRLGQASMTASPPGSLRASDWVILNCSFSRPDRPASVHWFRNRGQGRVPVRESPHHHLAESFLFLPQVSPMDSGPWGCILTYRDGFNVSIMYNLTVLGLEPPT

T2: human LAG-3 domain 1-2 Fc fusion, point mutation #59 Q117A (human, UniProt P18627 23-266)
T2 construct: not shown: human IgG1 Fc, AA P101-K330
T2 sequence: T1 sequence with A78T, Q95A

T3: human LAG-3 domain 1-2 Fc fusion, point mutation #62 Q121A (human, UniProt P18627 23-266)
T3 construct: not shown: human IgG1 Fc, AA P101-K330
T3 sequence: T1 sequence with A78T, Q99A

T4: human LAG-3 domain 1-2 Fc fusion, point mutation #63 D123A (human, UniProt P18627 23-266)
T4 construct: not shown: human IgG1 Fc, AA P101-K330
T4 sequence: T1 sequence with A78T, D101A

T5: human LAG-3 domain 1-2 Fc fusion, point mutation #10 S54A (human, UniProt P18627 23-266)
T5 construct: not shown: human IgG1 Fc, AA P101-K330
T5 sequence: T1 sequence with S32A, A78T

T6: human LAG-3 domain 1-2 Fc fusion, point mutation #12 R57A (human, UniProt P18627 23-266)
T6 construct: not shown: human IgG1 Fc, AA P101-K330
T6 sequence: T1 sequence with R35A, A78T

T7: human LAG-3 domain 1-2 Fc fusion, point mutation #22 A75S (human, UniProt P18627 23-266)
T7 construct: not shown: human IgG1 Fc, AA P101-K330
T7 sequence: T1 sequence with A53S, A78T

T8: human LAG-3 domain 1-2 Fc fusion, point mutation #34 A87S (human, UniProt P18627 23-266)
T8 construct: not shown: human IgG1 Fc, AA P101-K330
T8 sequence: T1 sequence with A65S, A78T

T9: human LAG-3 domain 1-2 Fc fusion, point mutation #35 A88S (human, UniProt P18627 23-266)
T9 construct: not shown: human IgG1 Fc, AA P101-K330
T9 sequence: T1 sequence with A66S, A78T

B1: Fab fragment of antibody 15011 (Fab, V domains shown, not shown: a dimerising Fc or GST)
VH: EVQLLESGGGLVQPGGSLRLSCAASGFDFRSYAMMWVRQAPGKGLEWVGGINGEVGGSNTYYAPAVKGRATISRDNSKNTLYLQMNSLRAEDTAVYYCVKGAGACGICNDDIDAWGQGTLVTVSS
VL: SYELTQDPAVSVALGQTVRITCSGAGSYAGSYYYGWHQQKPGQAPVTVIYDNDKRPSNIPDRFSGSSSGNTASLTITGAQAEDEADYYCGSTNDNDDGGLFGSGTKVTVLG
notes: monomeric Fab made by GingisKHAN digestion of the IgG1
B2: Fab fragment of antibody 15572 (Fab, V domains shown, not shown: a dimerising Fc or GST)
VH: QLQLQESGPGLVKPSETLSLTCTVSGDSISSSSYYWGWIRQPPGKGLEWIGSIFYSGNTYYNPSLKSRVTISVDTSKNQFSLKLSSVTAADTAVYYCAREDDFLTDYYGAFDIWGQGTMVTVSS
VL: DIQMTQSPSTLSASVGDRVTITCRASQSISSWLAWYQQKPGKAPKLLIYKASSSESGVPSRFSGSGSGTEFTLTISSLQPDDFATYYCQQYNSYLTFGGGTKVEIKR
notes: as for B1
B3: Fab fragment of antibody 15532 (Fab, V domains shown, not shown: a dimerising Fc or GST)
VH: QVQLQQWGAGLLRPSETLSLTCAVYGESFSGYYWNWIRQPPGKGLEWIGEINHSGSTNYNPSLKSRVTISVDTSKTQFSLKLSSVTAADTAVYYCARGWDLLDWNDYWNEYWGQGTLVTVSS
VL: EIVLTQSPATLSLSPGERATLSCRASQSVSSYLAWYQQKPGQAPRLLIYDASNRATGIPARFSGSGSGTDFTLTISSLEPEDFAVYYCQQRSNWPLTFGGGTKVEIKR
notes: as for B1
B4: Fab fragment of antibody 15431 (Fab, V domains shown, not shown: a dimerising Fc or GST)
VH: QVQLQQSGPGLVKPSQTLSLTCAISGDSVSSNSAAWNWIRQSPSRGLEWLGRTYYRSKWYNDYAVSVKSRITINPDTSKNQFSLQLNSVTPEDTAVYYCARDDDWNDFDYWGQGTLVTVSS
VL: B3 VL
notes: as for B1

What was measured:
Assay in all cases: SPR, Fab over captured mutant LAG-3-Fc;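 also: fc fusion variants captured on anti-human IgG Fc sensor, Fab injected with association then dissociation phases, KD obtained from Langmuir one-to-one fit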
[1] = target: T1, human LAG-3 domain 1-2 Fc fusion, point …
Experimental: (§1) The LAG-3 fusion proteins were immobilized onto a G-a-hu-IgG Fc SensEye® (Ssens BV, The Netherlands) for 15 minutes using a Continuous Flow Microspotter (CFM, Wasatch Microfluidics, Salt Lake City, US). After spotting, the SensEye® was positioned in an IBIS MX96 biosensor and captured proteins were evaluated for binding affinity. […] Fab association was performed for 15 minutes and antigen dissociation was performed for 15 minutes. The recorded binding responses were fitted to a simple Langmuir 1:1 binding model with Scrubber 2 software for calculation of the on-rate (kon or ka), off-rate (koff or kd) and affinity (KD) constants.

[2] = target: T2, human LAG-3 domain 1-2 Fc fusion, point …
Experimental: as §1

[3] = target: T3, human LAG-3 domain 1-2 Fc fusion, point …
Experimental: as §1

[4] = target: T4, human LAG-3 domain 1-2 Fc fusion, point …
Experimental: as §1

[5] = target: T5, human LAG-3 domain 1-2 Fc fusion, point …
Experimental: as §1

[6] = target: T6, human LAG-3 domain 1-2 Fc fusion, point …
Experimental: as §1

[7] = target: T7, human LAG-3 domain 1-2 Fc fusion, point …
Experimental: as §1

[8] = target: T8, human LAG-3 domain 1-2 Fc fusion, point …
Experimental: as §1

[9] = target: T9, human LAG-3 domain 1-2 Fc fusion, point …
Experimental: as §1

Binder | KD mutant/KD wild type [1] [fold] | KD mutant/KD wild type [2] [fold] | KD mutant/KD wild type [3] [fold] | KD mutant/KD wild type [4] [fold] | KD mutant/KD wild type [5] [fold] | KD mutant/KD wild type [6] [fold] | KD mutant/KD wild type [7] [fold] | KD mutant/KD wild type [8] [fold] | KD mutant/KD wild type [9] [fold] | binding result [1] | binding result [8]
B1 | 0.6 | 0.7 | 0.9 | 0.8 | 0.8 | 0.7 | 0.8 | 1 | 0.9 |  | 
B2 |  | 0.5 | 0.6 | 0.5 | 0.7 | 0.8 | 0.7 | 0.9 | 0.6 | no binding (tested: 300 nM) | 
B3 | 3.9 | 0.8 | 0.9 | 1 | 0.7 | 1.1 | 0.9 |  | 3.7 |  | no binding (tested: 300 nM)
B4 |  | 0.4 | 1 | 0.9 | 0.5 | 0.6 | 0.8 | 1 | 0.6 | no binding (tested: 300 nM) | 
